In article PMC3298473, “Effects of partner proteins on BCA2 RING ligase activity” (BMC Cancer, 2012):

Key:
[1] = molecular target: T1, Recombinant Flag-BCA2, wild type, purified (human, UniProt Q9Y4L5 1-304); assay: pull-down; purified recombinant Flag-BCA2 (wild type or mutants) incubated with sepharose-immobilised GST control or GST-14-3-3σ from bacterial cell lysates; immunoblot; conditions: both partners purified
T1 construct: BCA2, a 304 amino acid protein; also called Purified recombinant wild-type BCA2; source: recombinant, purified
T1 sequence (Q9Y4L5 whole entry): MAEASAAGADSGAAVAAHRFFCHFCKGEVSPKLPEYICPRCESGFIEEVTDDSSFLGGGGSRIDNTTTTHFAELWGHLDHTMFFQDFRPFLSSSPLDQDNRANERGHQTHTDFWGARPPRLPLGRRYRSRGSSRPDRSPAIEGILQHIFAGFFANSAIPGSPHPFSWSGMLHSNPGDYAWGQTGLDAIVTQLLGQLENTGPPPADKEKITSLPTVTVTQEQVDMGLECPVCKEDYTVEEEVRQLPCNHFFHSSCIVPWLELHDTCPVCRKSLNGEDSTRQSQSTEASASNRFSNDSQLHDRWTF

[2] = molecular target: T2, Recombinant Flag-BCA2 RING mutant (C228/231A), purified (human, UniProt Q9Y4L5 1-304, C228/231A | C228/231A); assay: as above; conditions: both partners purified
T2 construct: BCA2, a 304 amino acid protein, with C228A and C231A in the RING domain (ligase-dead); also called RING mt; source: recombinant, purified
T2 sequence (Q9Y4L5 other isoform, or with tags, fused parts or gaps C228/231A | C228/231A | C228/231A | C228/231A | mutant): as the sequence (Q9Y4L5 whole entry) above, with C228A, C231A counted along it

B1: GST-tagged 14-3-3σ (natural protein, human, UniProt P31947 1-248, looked up)
chain: MERASLIQKAKLAEQAERYEDMAAFMKGAVEKGEELSCEERNLLSVAYKNVVGGQRAAWRVLSSIEQKSNEEGSEEKGPEVREYREKVETELQGVCDTVLGLLDSHLIKEAGDAESRVFYLKMKGDYYRYLAEVATGDDKKRIIDSARSAYQEAMDISKKEMPPTNPIRLGLALNFSVFHYEIANSPEEAISLAKTTFDEAMADLHTLSEDSYKDSTLIMQLLRDNLTLWTADNAGEEGGEAPQEPQS
notes: 14-3-3σ; the GST construct is not described in the methods; also called GST-14-3-3σ; source: bacterial cell lysates, immobilised on sepharose
- binding result [1]: binds
- binding result [2]: binds
